Where “and” joins values, the source holds several entries; their conditions need not be identical. Equal entries are not always repeated.

The text below walks through data of patent publication US20130156786A1 (Sanofi, published 2013).

Experiment [1] concerns the target T1, human α2β1 integrin on human platelets (human, UniProt P17301 30-1181; P05556 21-798). The experiment in a line: cell-based or functional assay.
The target in experiment [2] is T1, human α2β1 integrin on human platelets. As to the kind of experiment: cell-based or functional assay. The source holds these as a separate data set.
Experiment [3] has the same target. The experiment in a line: cell-based or functional assay. This is another data set of the same source.
For experiment [4], the target named is T2, recombinantly expressed integrin α2β1 (human, UniProt P17301 30-1132; P05556 21-728, limits assumed).
T2 construct: The assay paragraph gives neither species nor construct limits; also called a2β1; recombinant α2 integrin
As to the kind of experiment: solid phase assay: inhibition of biotinylated collagen binding to coated α2β1.

The target of experiment [5] is T3, α2-I-domain GST aa 140-339 (human, UniProt P17301 169-368).
T3 construct: May be the same protein as m4; also called I-domain of integrin α2β1 integrin; not shown: GST
T3 sequence: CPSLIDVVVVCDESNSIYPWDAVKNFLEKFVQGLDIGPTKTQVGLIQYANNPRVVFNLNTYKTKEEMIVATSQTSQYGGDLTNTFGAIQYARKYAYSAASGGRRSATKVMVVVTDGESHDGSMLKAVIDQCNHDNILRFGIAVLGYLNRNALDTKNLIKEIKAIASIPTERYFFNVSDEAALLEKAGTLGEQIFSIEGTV
As to the kind of experiment: solid phase assay: inhibition of biotinylated collagen binding to coated α2-I-domain. How it is done:
For the Solid Phase Assay, integrin (α₂-I-domain: α₂-I-domain GST aa 140-339 in TBS/5 mM Mn²⁺, 50 μl/well) was immobilized on 96-well plate (Corning Costar, 3690), at room temperature overnight. Then, 25 μl/well of blocking solution (5% BSA (crude) (A7906), 1×TBS) were added and discarded. 200 μl/well of blocking solution were added and left for 3 h at room temperature. After a washing step (3 times with 200 μl/well binding buffer: 1×TBS and 0.1% BSA (A7638) and 2 mM Mn²⁺; TBS: 150 mM NaCl, 25 mM Tris (Fluka 93371) pH7.4), samples were incubated at RT for 3 h stationary with 50 μl of:
After a washing step (3 times with 200 μl/well binding buffer), samples were incubated with 50 μl/well ExtrAvidin Peroxidase (Peroxidase conjugate, Sigma E2886; 1:500 in binding buffer) for 30 min at RT and again washed 4 times with 200 μl/well binding buffer. […]

In experiment [6] the target is T4, human integrin α2 I domain, recombinantly expressed in E. coli (human, UniProt P17301 169-368, limits assumed).
T4 construct: Analyte of the Biacore experiments; also called integrin α2β1 I-domain; integrin I-domain
T4 sequence: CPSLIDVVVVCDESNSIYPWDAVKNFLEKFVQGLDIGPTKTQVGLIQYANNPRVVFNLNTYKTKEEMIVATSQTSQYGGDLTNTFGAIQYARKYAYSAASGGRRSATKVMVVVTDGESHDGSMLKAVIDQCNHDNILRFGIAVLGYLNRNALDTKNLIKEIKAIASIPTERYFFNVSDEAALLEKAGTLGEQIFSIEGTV
As to the kind of experiment: SPR Biacore 3000, antibody immobilised by amine coupling, I-domain as analyte, 1:1 model with mass transfer. An excerpt:
(§1) Surface plasmon resonance technology on a Biacore 3000 (GE Healthcare) was used for detailed kinetic characterisation of the purified antibody and the corresponding Fab fragment. A direct binding assay was used with the anti-integrin antibody or the Fab fragment as the ligand and the integrin α2β1 I-domain as analyte. Typically, 600 RU of antibody or Fab fragment were immobilised on a research grade CMS chip by amine reactive coupling, resulting in an Rmax of 80 and 140 RU for the I domain bound to the antibody and the Fab fragment, respectively. Binding kinetics were measured over a concentration range between 0.4 to 28 nM I-domain in HBS-P buffer supplemented with 4 mM MgCl2 (10 mM HEPES pH 7.4, 150 mM NaCl, 0.005% Surfactant P20) at a flow rate of 30 μl/min. Chip surfaces were regenerated with 10 mM glycine pH 2.2. Kinetic parameters were analysed and calculated in the BIAevaluation program package (version 4.1) using a flow cell without immobilised anti-integrin antibody or Fab fragment as reference. A 1:1 binding model with mass transfer was applied for a global fit of the data for curves corresponding to analyte concentrations from 0.4-28 nM […].
For orientation: Surface plasmon resonance follows binding to a sensor surface in real time, without labels.

Experiment [7] deals with T2, recombinantly expressed integrin α2β1. The experiment in a line: solid phase assay: inhibition of biotinylated collagen binding to coated α2β1, 4% HSA.
The target in experiment [8] is T4, human integrin α2 I domain, …. The experiment in a line: SPR Biacore 3000, Fab immobilised by amine coupling, I-domain as analyte, 1:1 model with mass transfer.
From the text: as §1

T2 sequence (P17301 30-1132 limits assumed, chain 1 of 2): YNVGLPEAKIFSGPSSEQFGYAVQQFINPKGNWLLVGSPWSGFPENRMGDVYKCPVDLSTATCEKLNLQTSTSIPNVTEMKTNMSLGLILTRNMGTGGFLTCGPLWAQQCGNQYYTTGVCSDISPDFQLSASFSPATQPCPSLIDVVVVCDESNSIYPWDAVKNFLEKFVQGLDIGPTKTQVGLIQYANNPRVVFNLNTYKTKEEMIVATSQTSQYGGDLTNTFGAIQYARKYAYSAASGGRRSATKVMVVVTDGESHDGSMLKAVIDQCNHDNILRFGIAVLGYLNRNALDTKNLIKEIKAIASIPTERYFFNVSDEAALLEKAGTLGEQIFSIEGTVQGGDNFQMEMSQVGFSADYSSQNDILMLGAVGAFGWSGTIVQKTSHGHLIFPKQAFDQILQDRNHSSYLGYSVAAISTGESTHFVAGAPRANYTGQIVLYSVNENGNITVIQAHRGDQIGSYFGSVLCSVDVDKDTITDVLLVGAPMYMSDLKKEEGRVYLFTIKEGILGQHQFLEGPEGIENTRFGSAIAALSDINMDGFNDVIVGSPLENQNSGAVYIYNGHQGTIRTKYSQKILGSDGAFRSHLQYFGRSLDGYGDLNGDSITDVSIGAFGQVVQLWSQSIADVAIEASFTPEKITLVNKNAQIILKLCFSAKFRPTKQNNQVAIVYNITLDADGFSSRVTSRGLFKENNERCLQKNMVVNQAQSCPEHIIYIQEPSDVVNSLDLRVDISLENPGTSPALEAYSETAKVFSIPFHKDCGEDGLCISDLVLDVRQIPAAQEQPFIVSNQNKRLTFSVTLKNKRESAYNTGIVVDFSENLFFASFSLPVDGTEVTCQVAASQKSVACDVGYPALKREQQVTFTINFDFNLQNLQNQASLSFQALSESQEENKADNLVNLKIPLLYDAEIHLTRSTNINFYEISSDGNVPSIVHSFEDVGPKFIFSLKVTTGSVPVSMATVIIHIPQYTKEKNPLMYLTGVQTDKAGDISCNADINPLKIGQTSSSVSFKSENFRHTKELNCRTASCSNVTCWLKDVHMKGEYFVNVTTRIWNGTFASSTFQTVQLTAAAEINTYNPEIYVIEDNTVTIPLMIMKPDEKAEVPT
T2 sequence (P05556 21-728 limits assumed, chain 2 of 2): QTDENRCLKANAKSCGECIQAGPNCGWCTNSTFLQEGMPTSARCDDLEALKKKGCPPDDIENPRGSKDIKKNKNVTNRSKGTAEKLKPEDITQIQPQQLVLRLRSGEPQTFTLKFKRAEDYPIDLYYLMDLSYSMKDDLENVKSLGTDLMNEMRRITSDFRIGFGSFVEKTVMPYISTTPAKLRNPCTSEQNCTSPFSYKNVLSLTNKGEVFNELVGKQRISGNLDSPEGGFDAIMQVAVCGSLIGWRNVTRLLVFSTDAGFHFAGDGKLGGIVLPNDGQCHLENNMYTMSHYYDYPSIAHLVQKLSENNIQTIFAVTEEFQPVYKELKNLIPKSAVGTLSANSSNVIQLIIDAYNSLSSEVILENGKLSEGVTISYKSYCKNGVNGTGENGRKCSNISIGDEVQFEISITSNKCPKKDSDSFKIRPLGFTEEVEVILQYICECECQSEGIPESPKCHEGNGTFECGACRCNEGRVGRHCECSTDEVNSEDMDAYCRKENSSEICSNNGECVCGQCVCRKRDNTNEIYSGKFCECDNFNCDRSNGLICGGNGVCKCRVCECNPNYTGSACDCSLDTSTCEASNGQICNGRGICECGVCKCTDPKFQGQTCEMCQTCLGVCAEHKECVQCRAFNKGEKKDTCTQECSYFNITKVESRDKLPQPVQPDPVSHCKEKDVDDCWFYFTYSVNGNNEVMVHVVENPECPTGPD
T1 sequence (P17301 30-1181 limits assumed, chain 1 of 2): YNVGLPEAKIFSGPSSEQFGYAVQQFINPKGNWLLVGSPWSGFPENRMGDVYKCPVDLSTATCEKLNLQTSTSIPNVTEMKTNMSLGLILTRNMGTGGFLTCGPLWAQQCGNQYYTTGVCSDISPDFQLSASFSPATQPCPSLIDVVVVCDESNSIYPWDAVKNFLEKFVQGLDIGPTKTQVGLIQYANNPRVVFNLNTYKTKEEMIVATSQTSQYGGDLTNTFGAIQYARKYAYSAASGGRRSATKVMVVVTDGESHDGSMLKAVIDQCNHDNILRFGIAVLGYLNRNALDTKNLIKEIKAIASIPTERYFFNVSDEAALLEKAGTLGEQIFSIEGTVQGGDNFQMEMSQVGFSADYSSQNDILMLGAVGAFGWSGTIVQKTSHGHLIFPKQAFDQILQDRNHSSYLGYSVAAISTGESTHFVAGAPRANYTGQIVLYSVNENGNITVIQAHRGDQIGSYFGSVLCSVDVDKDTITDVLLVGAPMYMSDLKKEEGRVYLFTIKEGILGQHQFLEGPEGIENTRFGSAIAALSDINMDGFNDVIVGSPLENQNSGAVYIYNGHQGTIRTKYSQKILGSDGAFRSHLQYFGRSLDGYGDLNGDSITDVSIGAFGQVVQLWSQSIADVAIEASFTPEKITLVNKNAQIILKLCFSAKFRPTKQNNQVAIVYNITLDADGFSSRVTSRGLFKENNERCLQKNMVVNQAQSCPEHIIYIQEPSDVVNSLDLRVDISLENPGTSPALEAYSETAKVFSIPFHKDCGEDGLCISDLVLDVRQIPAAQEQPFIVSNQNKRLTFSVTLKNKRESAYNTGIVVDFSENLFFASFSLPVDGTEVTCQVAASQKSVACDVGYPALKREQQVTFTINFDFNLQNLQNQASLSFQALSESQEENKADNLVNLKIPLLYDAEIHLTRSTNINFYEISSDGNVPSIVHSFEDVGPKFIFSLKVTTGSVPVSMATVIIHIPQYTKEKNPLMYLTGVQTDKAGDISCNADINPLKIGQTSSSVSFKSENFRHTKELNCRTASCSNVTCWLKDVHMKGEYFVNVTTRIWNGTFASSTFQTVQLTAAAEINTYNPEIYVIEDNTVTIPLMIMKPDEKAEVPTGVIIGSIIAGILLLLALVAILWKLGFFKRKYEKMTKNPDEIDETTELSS
T1 sequence (P05556 21-798 limits assumed, chain 2 of 2): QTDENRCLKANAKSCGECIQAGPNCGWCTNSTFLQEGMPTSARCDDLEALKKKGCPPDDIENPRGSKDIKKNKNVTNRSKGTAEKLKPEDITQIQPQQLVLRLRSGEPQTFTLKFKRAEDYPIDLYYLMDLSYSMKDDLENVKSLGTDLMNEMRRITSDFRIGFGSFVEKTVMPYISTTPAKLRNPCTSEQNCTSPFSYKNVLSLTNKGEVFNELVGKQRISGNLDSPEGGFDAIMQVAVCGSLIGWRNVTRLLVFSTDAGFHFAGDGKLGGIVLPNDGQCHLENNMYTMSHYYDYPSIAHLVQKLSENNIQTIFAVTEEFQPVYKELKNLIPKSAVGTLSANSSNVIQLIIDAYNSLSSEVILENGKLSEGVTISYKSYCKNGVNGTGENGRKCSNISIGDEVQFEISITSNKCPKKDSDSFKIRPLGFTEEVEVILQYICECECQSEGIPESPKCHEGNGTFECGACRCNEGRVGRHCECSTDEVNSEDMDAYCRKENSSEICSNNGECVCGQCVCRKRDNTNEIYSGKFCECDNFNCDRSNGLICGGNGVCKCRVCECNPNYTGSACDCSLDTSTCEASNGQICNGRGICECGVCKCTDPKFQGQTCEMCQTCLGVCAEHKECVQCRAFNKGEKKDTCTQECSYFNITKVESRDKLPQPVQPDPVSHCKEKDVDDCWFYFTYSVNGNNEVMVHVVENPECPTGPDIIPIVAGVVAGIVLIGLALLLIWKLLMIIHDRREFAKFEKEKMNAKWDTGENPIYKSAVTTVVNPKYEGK

B1: humanized anti-α2-integrin mAb LC5/HC7 (antibody, IgG4, V domains shown)
VH: QVQLVQSGAEVKKPGASVKVSCKASGYTFTSYWMNWVRQAPGQGLEWIGRIDPSDSETHYAQKFQGRATLTVDKSTSTAYMELSSLRSEDTAVYYCAKVGRGYFDYWGQGTLVTVSS
VL: NIVLTQSPASLAVSPGQRATITCRASESVESYGNSFIYWYQQKPGQPPKLLIYLASNLASGVPARFSGSGSRTDFTLTINPVEADDTANYYCQQNNEDPYTFGGGTKLEIK
For the molecule B1, the “Inhibition of binding of washed platelets to collagen, IC50” value (from here on “Inhibition of binding … to collagen, IC50”) in experiment [1] turned out to be 0.031 µg/mL. Also, the “Inhibition of binding of platelets to collagen in platelet rich plasma, MW IC50” value (shortened to “Inhibition of binding of platelets”) in experiment [2] was found to be 0.224 µg/mL.

B2: chimeric anti α2-integrin-IgG4 (murine variable domains on human IGKC and mutated human IGHG4) (antibody)
heavy: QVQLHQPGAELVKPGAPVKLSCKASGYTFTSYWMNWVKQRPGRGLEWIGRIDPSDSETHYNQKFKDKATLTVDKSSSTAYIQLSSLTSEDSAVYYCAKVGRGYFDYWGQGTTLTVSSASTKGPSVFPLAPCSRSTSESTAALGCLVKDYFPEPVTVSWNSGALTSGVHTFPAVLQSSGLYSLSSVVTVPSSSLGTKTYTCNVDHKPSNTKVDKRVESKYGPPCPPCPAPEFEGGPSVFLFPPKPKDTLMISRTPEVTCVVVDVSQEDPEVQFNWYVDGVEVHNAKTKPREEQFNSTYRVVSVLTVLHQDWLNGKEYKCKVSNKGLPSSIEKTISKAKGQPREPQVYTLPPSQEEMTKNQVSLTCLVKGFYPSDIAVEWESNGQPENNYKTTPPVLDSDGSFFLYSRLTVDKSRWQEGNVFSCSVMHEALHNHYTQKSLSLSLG
light: NIVLTQSPASLAVSLGQRATISCRASESVESYGNSFIYWYQQKPGQAPKLLIYLASNLASGVPARFSGSGSRTDFTLTIDPVEADDAATYYCQQNNEDPYTFGGGTKLEIKRTVAAPSVFIFPPSDEQLKSGTASVVCLLNNFYPREAKVQWKVDNALQSGNSQESVTEQDSKDSTYSLSSTLTLSKADYEKHKVYACEVTHQGLSSPVTKSFNRGEC
notes: Expressed in HEK 293-FS; also called IgG4 mAb; Antibody
As a reminder, the IC50 is the concentration needed to halve the response being measured. A word on the Kd: it is the equilibrium constant for the complex coming apart. The koff is the rate constant with which the complex falls apart. As a reminder, the kon is the rate constant with which the complex forms. For the molecule B2, in experiment [3], the “Static human platelet adhesion to collagen (PRP), IC50” value was 0.3 µg/mL and 6.7 nM; the “Static human platelet adhesion to collagen (washed plt), IC50” value was 0.017 µg/mL and 0.1 nM. Besides, the IC50 in experiment [4] was 0.05 µg/mL and 0.3 nM. In experiment [5], the IC50 was 0.2 µg/mL and 1.5 nM. Moreover, in experiment [6], the Kd came to 1.35 nM, the koff is 0.00117 s⁻¹ and the on-rate (kon) was determined as 860000 M⁻¹ s⁻¹.

B3: TMC2206, humanized hIgG4 anti-alpha 2 integrin antibody (comparator) (antibody, V domains shown)
VH: QVQLQESGPGLVKPSETLSLTCTVSGFSLTNYGIHWIRQPPGKGLEWLGVIWARGFTNYNSALMSRLTISKDNSKNQVSLKLSSVTAADTAVYYCARANDGVYYAMDYWGQGTLVTVSS
VL: DFVMTQSPAFLSVTPGEKVTITCSAQSSVNYIHWYQQKPDQAPKKLIYDTSKLASGVPSRFSGSGSGTDYTFTISSLEAEDAATYYCQQWTTNPLTFGQGTKVEIKR
Take B3: the “Inhibition of binding … to collagen, IC50” value in experiment [1] stood at 0.023 µg/mL. In addition, the “Inhibition of binding of platelets” value in experiment [2] was 0.11 µg/mL.

B4: chimeric anti α2-integrin-Fab (6xHis tagged CH1 of human IGHG1) (Fab, V domains shown)
VH: QVQLHQPGAELVKPGAPVKLSCKASGYTFTSYWMNWVKQRPGRGLEWIGRIDPSDSETHYNQKFKDKATLTVDKSSSTAYIQLSSLTSEDSAVYYCAKVGRGYFDYWGQGTTLTVSS
VL: NIVLTQSPASLAVSLGQRATISCRASESVESYGNSFIYWYQQKPGQAPKLLIYLASNLASGVPARFSGSGSRTDFTLTIDPVEADDAATYYCQQNNEDPYTFGGGTKLEIKR
notes: also called Fab fragment; Fab frament
In the case of B4, in experiment [3], the “Human platelet adhesion to collagen under shear (whole blood) 3000 s-1, IC50” value is 1.3 nM and 0.06 µg/mL; the “Static human platelet adhesion to collagen (PRP), IC50” value is 0.3 µg/mL and 6.7 nM; the “Static human platelet adhesion to collagen (washed plt), IC50” value was 0.04 µg/mL and 0.8 nM. In addition, the IC50 in experiment [4] was 0.2 µg/mL and 4.2 nM. Moreover, the IC50 in experiment [7] was 0.4 µg/mL and 8.2 nM. Also, in experiment [8], the Kd was 0.84 nM, the koff came to 0.00083 s⁻¹ and the kon was 990000 M⁻¹ s⁻¹.

B5: humanized anti-α2-integrin mAb LC3/HC3 (antibody, IgG4, V domains shown)
VH: QVQLHQPGAELVKPGASVKLSCKASGYTFTSYWMNWVKQRPGRGLEWIGRIDPSDSETHYNQKFKDKATLTVDKSSSTAYIQLSSLTSEDSAVYYCAKVGRGYFDYWGQGTTLTVVS
VL: NIVLTQSPSSLSVSVGQRATISCRASESVESYGNSFIYWYQQKPGQAPKLLIYLASNLASGVPARFSGSGSRTDFTLTIDPVQAEDAATYYCQQNNEDPYTFGGGTKLEIK
As to B5, the “Inhibition of binding … to collagen, IC50” value in experiment [1] came to 0.012 µg/mL. In addition, in experiment [2], the “Inhibition of binding of platelets” value worked out at 0.132 µg/mL.

B6: humanized anti-α2-integrin mAb LC4/HC6 (antibody, IgG4, V domains shown)
VH: QVQLHQPGAELVKPGASVKLSCKASGYTFTSYWMNWVKQRPGRGLEWIGRIDPSESETHYNQKFKDKATLTVDKSSSTAYIQLSSLTSEDSAKYYCAKVGRGYFDYWGQGTTLTVVS
VL: NIVLTQSPSSLSVSVGQRATISCRASESVESYGQSFIYWYQQKPGQAPKLLIYLASNLASGVPARFSGSGSRTDFTLTIDPVQAEDAATYYCQQNNEDPYTFGGGTKLEIK
As to B6, the “Inhibition of binding … to collagen, IC50” value in experiment [1] was 0.068 µg/mL. Also, the “Inhibition of binding of platelets” value in experiment [2] worked out at 4.11 µg/mL.

B7: humanized anti-α2-integrin mAb LC4/HC5 (antibody, IgG4, V domains shown)
VH: QVQLHQPGAELVKPGASVKLSCKASGYTFTSYWMNWVKQRPGRGLEWIGRIDPSESETHYNQKFKDKATLTVDKSSSTAYIQLSSLTSEDSAVYYCAKVGRGYFDYWGQGTTLTVVS
VL: NIVLTQSPSSLSVSVGQRATISCRASESVESYGQSFIYWYQQKPGQAPKLLIYLASNLASGVPARFSGSGSRTDFTLTIDPVQAEDAATYYCQQNNEDPYTFGGGTKLEIK
Turning to B7, the “Inhibition of binding … to collagen, IC50” value in experiment [1] came to 0.057 µg/mL. Further, the “Inhibition of binding of platelets” value in experiment [2] came to 3.25 µg/mL.

B8: humanized anti-α2-integrin mAb LC2/HC2 (antibody, IgG4, V domains shown)
VH: QVQLHQPGAELVKPGAPVKLSCKASGYTFTSYWMNWVKQRPGQGLEWIGRIDPSESETHYNQKFKDRATLTVDKSSSTAYIQLSSLTSEDSAVYYCAKVGRGYFDYWGQGTTLTVVS
VL: NIVLTQSPSSLAVSVGQRATISCRASESVESYGQSFIYWYQQKPGKAPKLLIYLASNLASGVPARFSGSGSRTDFTLTIDPVQADDAATYYCQQNNEDPYTFGGGTKLEIK
Turning to B8, the “Inhibition of binding … to collagen, IC50” value in experiment [1] was found to be 0.092 µg/mL. For the same molecule, the “Inhibition of binding of platelets” value in experiment [2] was determined as 3.96 µg/mL.

B9: humanized anti-α2-integrin mAb LC3/HC4 (antibody, IgG4, V domains shown)
VH: QVQLHQPGAELVKPGASVKLSCKASGYTFTSYWMNWVKQRPGRGLEWIGRIDPSDSETHYNQKFKDKATLTVDKSSSTAYIQLSSLTSEDSAKYYCAKVGRGYFDYWGQGTTLTVVS
VL: NIVLTQSPSSLSVSVGQRATISCRASESVESYGNSFIYWYQQKPGQAPKLLIYLASNLASGVPARFSGSGSRTDFTLTIDPVQAEDAATYYCQQNNEDPYTFGGGTKLEIK
Consider B9, for which the “Inhibition of binding … to collagen, IC50” value in experiment [1] came out at 0.016 µg/mL. The “Inhibition of binding of platelets” value in experiment [2] was 0.193 µg/mL.

B10: humanized anti-α2-integrin mAb LC1/HC1 (antibody, IgG4, V domains shown)
VH: QVQLHQPGAELVKPGAPVKLSCKASGYTFTSYWMNWVKQRPGQGLEWIGRIDPSDSETHYNQKFKDRATLTVDKSSSTAYIQLSSLTSEDSAVYYCAKVGRGYFDYWGQGTTLTVVS
VL: NIVLTQSPSSLAVSVGQRATISCRASESVESYGNSFIYWYQQKPGKAPKLLIYLASNLASGVPARFSGSGSRTDFTLTIDPVQADDAATYYCQQNNEDPYTFGGGTKLEIK
With B10, the “Inhibition of binding … to collagen, IC50” value in experiment [1] was 0.021 µg/mL. In addition, the “Inhibition of binding of platelets” value in experiment [2] worked out at 0.277 µg/mL.
